Results on three molecules are retold here after PMC4871749 (Nature chemical biology, 2016).

The target in test [1] is Taf14 YEATS domain (construct of the fluorescence assay) (yeast) (UniProt P35189). Kind of test: other fluorescence titration.
In test [2] the target is T1, Taf14 YEATS domain, Taf14 (1-132), uniformly 15N-labeled (yeast, UniProt P35189 1-132).
T1 sequence (looked up): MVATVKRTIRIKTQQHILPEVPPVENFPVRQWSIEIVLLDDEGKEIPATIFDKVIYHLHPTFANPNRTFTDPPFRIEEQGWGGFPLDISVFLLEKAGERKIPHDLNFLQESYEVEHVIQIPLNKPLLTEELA
Kind of test: NMR titration.

The target of test [3] is T2, Taf14 YEATS domain (residues 1-137) (yeast, UniProt P35189 1-137).
T2 sequence (looked up): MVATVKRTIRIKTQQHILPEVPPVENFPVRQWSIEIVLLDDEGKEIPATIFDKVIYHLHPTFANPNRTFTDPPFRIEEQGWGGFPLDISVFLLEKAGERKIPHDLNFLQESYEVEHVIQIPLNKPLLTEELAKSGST
As to the kind of experiment: crystal structure.

No end group written: not given here. *: point of attachment. Crotonyl(E) = C/C=C/C(=O)*

The term Kd denotes the constant that tells how readily two partners part at equilibrium. Take “H3K9cr5-13 peptide (residues 5-13 of H3, crotonylated at lysine 9) (from UniProt P61830 6-14)”: the Kd in test [1] was found to be 9.5 µM.

B1: H3K9ac5-13 peptide (residues 5-13 of H3, acetylated at lysine 9) (peptide, UniProt P61830 6-14, looked up)
peptide: QTARK(Ac)STGG
As for B1, the binding result in test [2] is “binds”.

B2: H3K9cr5-13 peptide (residues 5-13 of H3, crotonylated at lysine 9) (peptide, UniProt P61830 6-14, looked up)
peptide: QTARK(Crotonyl(E))STGG
Take B2: the binding result in test [2] and in test [3] was “binds” in each case.
